Reference: the Immune Epitope Database (IEDB)

Experiments:
[1] = target: HLA-B*58:01; assay: IEDB peptide-MHC binding, cellular MHC/competitive/fluorescence; ≥ and ≤ were set here for values at or beyond the usual limits of such assays; details: source organism: Human herpesvirus 4 strain B95-8
[2] = target: HLA-A*29:02; assay: IEDB peptide-MHC binding, purified MHC/competitive/radioactivity; filed as Kd, often an IC50 or EC50 that approximates it; ≥ and ≤ were set here for values at or beyond the usual limits of such assays; details: source organism: Homo sapiens
[3] = target: HLA-B*57:01; assay: as above; details: source organism: Homo sapiens
[4] = target: HLA-A*02:07; assay: as above; details: source organism: Homo sapiens
[5] = target: HLA-B*58:01; assay: as above; details: source organism: Homo sapiens
[6] = target: HLA-A*02:01; assay: as above; details: source organism: Homo sapiens
[7] = target: HLA-B*15:02; assay: IEDB peptide-MHC binding, purified MHC/competitive/fluorescence; filed as Kd, often an IC50 or EC50 that approximates it; ≥ and ≤ were set here for values at or beyond the usual limits of such assays; details: source organism: Homo sapiens
[8] = target: HLA-B*46:01; assay: as above; details: source organism: Homo sapiens
[9] = target: HLA-B*38:01; assay: IEDB peptide-MHC binding, purified MHC/direct/fluorescence; filed as Kd, often an IC50 or EC50 that approximates it; ≥ and ≤ were set here for values at or beyond the usual limits of such assays; details: source organism: Burkholderia mallei ATCC 23344
[10] = target: HLA-B*15:17; assay: as above
[11] = target: HLA-B*57:01; assay: as above
[12] = target: HLA-B*48:01; assay: as above
[13] = target: HLA-A*11:01; assay: as above
[14] = target: HLA-B*39:01; assay: as above; details: source organism: Burkholderia mallei ATCC 23344
[15] = target: HLA-A*26:01; assay: as above
[16] = target: HLA-B*40:01; assay: as above; details: source organism: Burkholderia mallei
[17] = target: HLA-B*46:01; assay: as above
[18] = target: HLA-B*08:02; assay: as above; details: source organism: Burkholderia mallei ATCC 23344
[19] = target: HLA-B*51:01; assay: as above; details: source organism: Burkholderia mallei
[20] = target: HLA-A*01:01; assay: as above
[21] = target: HLA-A*31:01; assay: as above
[22] = target: HLA-A*69:01; assay: as above
[23] = target: HLA-A*03:01; assay: as above
[24] = target: HLA-B*07:02; assay: as above
[25] = target: HLA-B*15:01; assay: as above
[26] = target: HLA-B*27:05; assay: as above
[27] = target: HLA-B*58:01; assay: as above
[28] = target: HLA-B*18:01; assay: as above; details: source organism: Burkholderia mallei
[29] = target: HLA-A*02:01; assay: as above
[30] = target: HLA-B*08:01; assay: IEDB peptide-MHC binding, purified MHC/competitive/fluorescence; filed as Kd, often an IC50 or EC50 that approximates it; ≥ and ≤ were set here for values at or beyond the usual limits of such assays
[31] = target: HLA-A*30:01; assay: as above
[32] = target: HLA-B*15:09; assay: as above; details: source organism: Giardia lamblia ATCC 50803
[33] = target: HLA-A*02:03; assay: as above
[34] = target: HLA-A*02:01; assay: as above; details: source organism: Giardia lamblia ATCC 50803
[35] = target: HLA-A*68:02; assay: IEDB peptide-MHC binding, purified MHC/direct/fluorescence; filed as Kd, often an IC50 or EC50 that approximates it; ≥ and ≤ were set here for values at or beyond the usual limits of such assays
[36] = target: HLA-B*08:03; assay: as above
[37] = target: HLA-B*15:02; assay: as above
[38] = target: HLA-B*40:13; assay: IEDB peptide-MHC binding, purified MHC/competitive/fluorescence; filed as Kd, often an IC50 or EC50 that approximates it; ≥ and ≤ were set here for values at or beyond the usual limits of such assays; details: source organism: Vibrio vulnificus YJ016
[39] = target: HLA-B*15:42; assay: as above; details: source organism: Vibrio vulnificus YJ016
[40] = target: HLA-A*32:07; assay: as above; details: source organism: Vibrio vulnificus YJ016
[41] = target: HLA-B*39:01; assay: as above; details: source organism: Vibrio vulnificus YJ016
[42] = target: HLA-B*83:01; assay: as above; details: source organism: Vibrio vulnificus YJ016
[43] = target: HLA-B*45:06; assay: as above; details: source organism: Vibrio vulnificus YJ016
[44] = target: HLA-B*27:20; assay: as above; details: source organism: Vibrio vulnificus YJ016
[45] = target: HLA-B*15:09; assay: IEDB peptide-MHC binding, purified MHC/direct/fluorescence; filed as Kd, often an IC50 or EC50 that approximates it; ≥ and ≤ were set here for values at or beyond the usual limits of such assays; details: source organism: Vibrio vulnificus CMCP6
[46] = source organism: Burkholderia mallei
[47] = source organism: Giardia lamblia ATCC 50803
[48] = source organism: Vibrio vulnificus YJ016
[49] = source organism: Vibrio vulnificus
[50] = source organism: Vibrio vulnificus CMCP6

In the case of LSIFDTSLF, the IC50 [1] is reported as 5 µM.
In the case of FIKDGSSTY, the Kd [2] is reported as 0.516 µM, the Kd [3] is reported as ≥ 61.3 µM and the Kd [4] is reported as ≥ 62.7 µM. The Kd [5] was ≥ 39.8 µM, the Kd [6] was ≥ 78.1 µM and the Kd [7] was 0.0039 µM. The Kd [8] was 0.0167 µM.
For AVAVARVAA, the Kd [9] was ≥ 20 µM, the Kd [10, 46] was ≥ 20 µM and the Kd [11, 46] was ≥ 20 µM. The Kd [12, 46] was ≥ 20 µM, the Kd [13, 46] was ≥ 20 µM and the Kd [14] was ≥ 20 µM. The Kd ([15]; source organism: Burkholderia mallei ATCC 23344) was ≥ 20 µM, the Kd [16] was ≥ 20 µM and the Kd [17, 46] was ≥ 20 µM. For the same sequence, the Kd [18] was ≥ 20 µM, the Kd [19] was ≥ 20 µM and the Kd [20, 46] was ≥ 20 µM. For the same sequence, the Kd [21, 46] was ≥ 20 µM, the Kd [22, 46] was ≥ 20 µM and the Kd [23, 46] was ≥ 20 µM. The Kd [24, 46] was 0.217 µM, the Kd [25, 46] was 4.21 µM and the Kd [26, 46] was ≥ 20 µM. For the same sequence, the Kd [27, 46] was ≥ 20 µM, the Kd [28] was ≥ 20 µM and the Kd [29, 46] was ≥ 20 µM.
For QLKQRDALF, the Kd [30, 47] was 0.135 µM, the Kd [31, 47] was ≥ 20 µM and the Kd [32] was ≥ 20 µM. For the same sequence, the Kd [33, 47] was ≥ 20 µM, the Kd [34] was ≥ 20 µM and the Kd [35, 47] was ≥ 20 µM. The Kd [10, 47] was 0.0657 µM, the Kd [11, 47] was 1.46 µM and the Kd [12, 47] was ≥ 20 µM. For the same sequence, the Kd [13, 47] was ≥ 20 µM, the Kd [36, 47] was 0.17 µM and the Kd [37, 47] was 0.029 µM. The Kd [15, 47] was ≥ 20 µM, the Kd [17, 47] was ≥ 20 µM and the Kd [20, 47] was ≥ 20 µM. The Kd [21, 47] was ≥ 20 µM, the Kd [22, 47] was ≥ 20 µM and the Kd [24, 47] was ≥ 20 µM. For the same sequence, the Kd [25, 47] was 0.027 µM, the Kd [26, 47] was ≥ 20 µM and the Kd [27, 47] was ≥ 20 µM.
In the case of YQRALHTSI, the Kd [30, 48] is reported as 0.292 µM, the Kd [38] is reported as 0.0608 µM and the Kd [39] is reported as ≥ 20 µM. The Kd [40] was 0.454 µM, the Kd [31, 48] was 1.12 µM and the Kd [41] was 0.395 µM. The Kd [42] was ≥ 5 µM, the Kd [43] was ≥ 5 µM and the Kd [44] was 0.0002 µM. For the same sequence, the Kd [33, 48] was 0.0021 µM, the Kd [35, 49] was ≥ 20 µM and the Kd [10, 49] was 0.13 µM. For the same sequence, the Kd [11, 49] was ≥ 20 µM, the Kd [12, 49] was 0.0586 µM and the Kd [13, 49] was ≥ 20 µM. The Kd [45] was ≥ 20 µM, the Kd [36, 50] was 0.055 µM and the Kd [37, 50] was 0.306 µM. The Kd [15, 50] was ≥ 20 µM, the Kd [17, 49] was ≥ 20 µM and the Kd [20, 49] was ≥ 20 µM. For the same sequence, the Kd [21, 49] was ≥ 20 µM, the Kd [22, 49] was ≥ 20 µM and the Kd [23, 49] was ≥ 20 µM. It also gave a Kd [24, 49] of 7.06 µM, a Kd [25, 49] of 0.0962 µM and a Kd [26, 49] of 2.05 µM. The Kd [27, 49] was ≥ 20 µM and the Kd [29, 49] was ≥ 20 µM.
